The values below come from PMC11580931 (bioRxiv, 2024).

The target in assay [1] is 3-pHis form of ACLY (120 kDa) (Homo sapiens (HEK293T, endogenous), UniProt P53396, 3-phosphohistidine (residue not stated)). Put plainly: immunoblot.
The target in assay [2] is 3-pTza peptide (Biotin-AminocaproicAcid-AGAG-3-pTza-AGAG). Put plainly: BLI.
The target in assay [3] is T1, 3-pHis peptide (biotin-aminocaproic acid-AGAG-3-pHis-AGAG).
T1 sequence (peptide, biotin-aminocaproic acid on the N-terminus; 3-phosphohistidine at position 5): AGAGHAGAG
Put plainly: BLI.

Sequence of 3-pHis form of ACLY (120 kDa) (P53396 whole entry): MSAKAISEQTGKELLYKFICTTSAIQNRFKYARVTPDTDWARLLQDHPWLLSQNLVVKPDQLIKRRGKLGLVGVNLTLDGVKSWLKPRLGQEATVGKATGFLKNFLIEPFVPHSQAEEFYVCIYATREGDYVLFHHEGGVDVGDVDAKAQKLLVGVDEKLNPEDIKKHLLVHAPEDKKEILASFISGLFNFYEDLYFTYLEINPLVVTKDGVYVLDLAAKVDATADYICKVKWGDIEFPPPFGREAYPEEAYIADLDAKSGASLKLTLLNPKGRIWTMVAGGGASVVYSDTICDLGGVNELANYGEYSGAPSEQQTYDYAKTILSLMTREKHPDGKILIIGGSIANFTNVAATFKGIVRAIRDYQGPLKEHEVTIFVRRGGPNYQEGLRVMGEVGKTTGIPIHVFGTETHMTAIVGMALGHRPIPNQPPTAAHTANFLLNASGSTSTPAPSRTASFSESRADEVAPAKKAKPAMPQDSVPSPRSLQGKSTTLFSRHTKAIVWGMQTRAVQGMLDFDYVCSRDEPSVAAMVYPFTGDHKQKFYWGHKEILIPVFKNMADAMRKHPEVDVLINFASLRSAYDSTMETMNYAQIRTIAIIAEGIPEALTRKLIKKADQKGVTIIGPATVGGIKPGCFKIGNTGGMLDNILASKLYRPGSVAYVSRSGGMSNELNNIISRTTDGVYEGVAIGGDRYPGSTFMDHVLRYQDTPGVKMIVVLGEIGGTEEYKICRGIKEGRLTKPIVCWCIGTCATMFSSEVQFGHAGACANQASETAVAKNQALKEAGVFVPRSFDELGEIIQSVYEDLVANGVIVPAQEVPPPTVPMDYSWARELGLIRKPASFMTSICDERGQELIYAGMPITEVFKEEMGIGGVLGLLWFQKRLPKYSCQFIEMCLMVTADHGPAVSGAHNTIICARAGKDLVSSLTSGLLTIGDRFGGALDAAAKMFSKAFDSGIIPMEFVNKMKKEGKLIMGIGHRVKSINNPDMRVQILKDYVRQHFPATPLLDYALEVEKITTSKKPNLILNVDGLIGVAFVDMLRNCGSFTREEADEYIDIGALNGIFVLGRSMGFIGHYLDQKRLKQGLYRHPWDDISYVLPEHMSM

B1: rSC44 IgG (rabbit SC44-8 anti-3-pTza/3-pHis mAb) (antibody, V domains shown)
VH: QSVKESGRGLVQPGGSLTLTCTASGFSIDSYGFSWVRQAPGKGLEHIGYLTAGGRAFYASWAKSRSTITRNTNENTVTLKMTSLTAADTATYFCAKLGSGNPVAIWGPGTLVTVSS
VL: QVLTQTPSFTSAAVGGTVTINCQSSQSVWRNKNLAWYQQKPGQPPKRLIYAIATLDSGVPSRFSGSGSGTQFTLTISDVQCDDAATYYCVGHYGSENDAYYAFGGGTEVVVK
Consider B1, for which the binding result in assay [1] is listed as “binds”.

B2: hSC44 IgG (humanized version of rSC44) (antibody, V domains shown)
VH: EVQLVESGGGLVQPGGSLRLSCTASGFSIDSYGFSWVRQAPGKGLEHIGYLTAGGRAFYASWAKSRSTITRNTNENTVTLKMNSLRAEDTAVYYCAKLGSGNPVAIWGQGTLVTVSS
VL: DIQMTQSPSSLSASVGDRVTITCRASQSVWRNKNVAWYQQKPGKAPKRLIYAIASLYSGVPSRFSGSGSGTDFTLTISSLQPEDFATYYCVGHYGSENDAYYAFGQGTKVEIK
For the molecule B2, the Kd in assay [2] amounted to 1.2 nM.

B3: hSC44.13 IgG (antibody, V domains shown)
VH: EVQLVESGGGLVQPGGSLRLSCTASGFSIDSYGFSWVRQAPGKGLEHIGYLTAGGRAFYASWAKSRSTITRNTNENTVTLKMNSLRAEDTAVYYCAKLGTGSPVAIWG
VL: DIQMTQSPSSLSASVGDRVTITCRASQSVWRNKNVAWYQQKPGKAPKRLIYAIASLYSGVPSRFSGSGSGTDFTLTISSLQPEDFATYYCVGHYGSENDAYYAFGQGTKVEIK
In assay [2], B3 had a dissociation constant (Kd) of 0.405 nM, a koff of 7.37e-05 s⁻¹ and a kon of 182000 M⁻¹ s⁻¹.

B4: hSC44.20.N32F^L IgG (antibody, V domains shown)
VH: EVQLVESGGGLVQPGGSLRLSCTASGFSIDSYGFSWVRQAPGKGLEHIGYLTAGGRAFYASWAKSRSTITRNTNENTVTLKMNSLRAEDTAVYYCAKLGTGSRFAIWGQGTLVTVSS
VL: DIQMTQSPSSLSASVGDRVTITCRASQSVWRNKFVAWYQQKPGKAPKRLIYAIASLYSGVPSRFSGSGSGTDFTLTISSLQPEDFATYYCVGHYGSENDAYYAFGQGTKVEIK
In the case of B4, in assay [3], the Kd was 1.68 nM, the dissociation rate constant (koff) stood at 1.64e-05 s⁻¹ and the kon worked out at 13900 M⁻¹ s⁻¹. Also, in assay [2], the dissociation constant Kd is 1.54 nM, the off-rate (koff) stood at 5.73e-05 s⁻¹ and the association rate constant (kon) is 37300 M⁻¹ s⁻¹. In assay [1], the binding result is “binds”.

B5: hSC44.28 IgG (antibody, V domains shown)
VH: EVQLVESGGGLVQPGGSLRLSCTASGFSIDSYGFSWVRQAPGKGLEHIGYLTAGGRAFYASWAKSRSTITRNTNENTVTLKMNSLRAEDTAVYYCAKLGTGSPLAIWG
VL: DIQMTQSPSSLSASVGDRVTITCRASQSVWRNKFVAWYQQKPGKAPKRLIYAIASLYSGVPSRFSGSGSGTDFTLTISSLQPEDFATYYCVGHYGSENDAYYAFGQGTKVEIK
Regarding B5, in assay [2], the dissociation constant Kd stood at 1.21 nM and the association rate constant (kon) was determined as 24900 M⁻¹ s⁻¹.

B6: hSC44.20.N32Y^L IgG (antibody, V domains shown)
VH: EVQLVESGGGLVQPGGSLRLSCTASGFSIDSYGFSWVRQAPGKGLEHIGYLTAGGRAFYASWAKSRSTITRNTNENTVTLKMNSLRAEDTAVYYCAKLGTGSRFAIWGQGTLVTVSS
VL: DIQMTQSPSSLSASVGDRVTITCRASQSVWRNKYVAWYQQKPGKAPKRLIYAIASLYSGVPSRFSGSGSGTDFTLTISSLQPEDFATYYCVGHYGSENDAYYAFGQGTKVEIK
In assay [3], B6 gave a dissociation constant (Kd) of 9.5 nM, a koff of 2.61e-05 s⁻¹ and a kon of 8880 M⁻¹ s⁻¹. In assay [2], this molecule returned a dissociation constant Kd of less than 0.001 nM and a kon of 35100 M⁻¹ s⁻¹.

B7: hSC44.20 IgG (antibody, V domains shown)
VH: EVQLVESGGGLVQPGGSLRLSCTASGFSIDSYGFSWVRQAPGKGLEHIGYLTAGGRAFYASWAKSRSTITRNTNENTVTLKMNSLRAEDTAVYYCAKLGTGSRFAIWGQGTLVTVSS
VL: DIQMTQSPSSLSASVGDRVTITCRASQSVWRNKNVAWYQQKPGKAPKRLIYAIASLYSGVPSRFSGSGSGTDFTLTISSLQPEDFATYYCVGHYGSENDAYYAFGQGTKVEIK
Take B7: the dissociation constant Kd was 21 nM in assay [3] and less than 0.001 nM in assay [2]. Also, the association rate constant (kon) in assay [3] was 75500 M⁻¹ s⁻¹; in assay [2], 257000 M⁻¹ s⁻¹. Moreover, the binding result in assay [1] was “binds”.

B8: hSC44.31 IgG (antibody, V domains shown)
VH: EVQLVESGGGLVQPGGSLRLSCTASGFSIDSYGFSWVRQAPGKGLEHIGYLTAGGRAFYASWAKSRSTITRNTNENTVTLKMNSLRAEDTAVYYCAKLGTGTPFAIWGQGTLVTVSS
VL: DIQMTQSPSSLSASVGDRVTITCRASQSVWRNKYVAWYQQKPGKAPKRLIYAIASLYSGVPSRFSGSGSGTDFTLTISSLQPEDFATYYCVGHYGSENDAYYAFGQGTKVEIK
In assay [2], B8 yielded a dissociation constant (Kd) of 2.71 nM, an off-rate constant (koff) of 3.98e-05 s⁻¹ and a kon of 14700 M⁻¹ s⁻¹.

B9: hSC44.3 IgG (antibody, V domains shown)
VH: EVQLVESGGGLVQPGGSLRLSCTASGFSIDSYGFSWVRQAPGKGLEHIGYLTAGGRAFYASWAKSRSTITRNTNENTVTLKMNSLRAEDTAVYYCAKIGSGSPVAIWG
VL: DIQMTQSPSSLSASVGDRVTITCRASQSVWRNKNVAWYQQKPGKAPKRLIYAIASLYSGVPSRFSGSGSGTDFTLTISSLQPEDFATYYCVGHYGSENDAYYAFGQGTKVEIK
Regarding B9, in assay [2], the equilibrium dissociation constant (Kd) turned out to be 0.352 nM, the koff was 1.43e-05 s⁻¹ and the kon turned out to be 40700 M⁻¹ s⁻¹.

B10: hSC44.1 IgG (antibody, V domains shown)
VH: EVQLVESGGGLVQPGGSLRLSCTASGFSIDSYGFSWVRQAPGKGLEHIGYLTAGGRAFYASWAKSRSTITRNTNENTVTLKMNSLRAEDTAVYYCAKLGTGSPIAIWGQGTLVTVSS
VL: DIQMTQSPSSLSASVGDRVTITCRASQSVWRNKNVAWYQQKPGKAPKRLIYAIASLYSGVPSRFSGSGSGTDFTLTISSLQPEDFATYYCVGHYGSENDAYYAFGQGTKVEIK
As to B10, in assay [2], the equilibrium dissociation constant (Kd) turned out to be 0.588 nM, the off-rate constant (koff) was found to be 8.32e-05 s⁻¹ and the on-rate (kon) stood at 141000 M⁻¹ s⁻¹.

B11: hSC44.22 IgG (antibody, V domains shown)
VH: EVQLVESGGGLVQPGGSLRLSCTASGFSIDSYGFSWVRQAPGKGLEHIGYLTAGGRAFYASWAKSRSTITRNTNENTVTLKMNSLRAEDTAVYYCAKLGTGTPVAIWG
VL: DIQMTQSPSSLSASVGDRVTITCRASQSVWRNKNVAWYQQKPGKAPKRLIYAIASLYSGVPSRFSGSGSGTDFTLTISSLQPEDFATYYCVGHYGSENDAYYAFGQGTKVEIK
In assay [2], B11 displayed a dissociation constant (Kd) of 0.495 nM, an off-rate constant (koff) of 4.49e-05 s⁻¹ and a kon of 90600 M⁻¹ s⁻¹.

B12: hSC44.8 IgG (antibody, V domains shown)
VH: EVQLVESGGGLVQPGGSLRLSCTASGFSIDSYGFSWVRQAPGKGLEHIGYLTAGGRAFYASWAKSRSTITRNTNENTVTLKMNSLRAEDTAVYYCAKIGTGSRVAIWG
VL: DIQMTQSPSSLSASVGDRVTITCRASQSVWRNKNVAWYQQKPGKAPKRLIYAIASLYSGVPSRFSGSGSGTDFTLTISSLQPEDFATYYCVGHYGSENDAYYAFGQGTKVEIK
With B12, in assay [2], the dissociation constant (Kd) is 0.185 nM, the koff stood at 6.66e-05 s⁻¹ and the association rate constant (kon) came out at 359000 M⁻¹ s⁻¹.
